Measurements published in the supplement of paper PMC9112550, “Optimization of the antimicrobial peptide Bac7 by deep mutational scanning” (BMC Biology, 2022).

Tested on: Escherichia coli TOP10
Test: shrunken log2 fold change of peptide-encoding DNA abundance (4.5 h post-induction vs induction); higher = less antimicrobial activity (less host growth inhibition)
Conditions: time post-induction: 4.5 h; library: site-saturation at positions 5, 18, 19, 20
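Note: peptides expressed intracellularly from a pBAD plasmid library in pooled LB shake-flask culture, induced with 0.3% L-arabinose, DNA abundance read by NGS, three biological replicates, DESeq2 with apeglm shrinkage.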

RRIRSRPPRLPRPRPRPYGMPRP
shrunken log2 fold change: -0.0661

RRIRSRPPRLPRPRPRPYGNPRP
shrunken log2 fold change: -0.621

RRIRSRPPRLPRPRPRPYGWPRP
shrunken log2 fold change: 0.328

RRIRSRPPRLPRPRPRPYLFPRP
shrunken log2 fold change: -0.676

RRIRSRPPRLPRPRPRPYMHPRP
shrunken log2 fold change: -0.395

RRIRSRPPRLPRPRPRPYQYPRP
shrunken log2 fold change: -1.11

RRIRSRPPRLPRPRPRPYRQPRP
shrunken log2 fold change: -0.402

RRIRSRPPRLPRPRPRPYTDPRP
shrunken log2 fold change: -1.11

RRIRSRPPRLPRPRPRPYTGPRP
shrunken log2 fold change: -0.125

RRIRSRPPRLPRPRPRPYWQPRP
shrunken log2 fold change: -0.551

RRIRSRPPRLPRPRPRPYWRPRP
shrunken log2 fold change: -0.21

RRIRTRPPRLPRPRPRPACAPRP
shrunken log2 fold change: 0.441

RRIRTRPPRLPRPRPRPACPPRP
shrunken log2 fold change: 0.178

RRIRTRPPRLPRPRPRPADYPRP
shrunken log2 fold change: -0.226

RRIRTRPPRLPRPRPRPAEVPRP
shrunken log2 fold change: -0.108

RRIRTRPPRLPRPRPRPAGAPRP
shrunken log2 fold change: 0.164

RRIRTRPPRLPRPRPRPAHKPRP
shrunken log2 fold change: 0.0105

RRIRTRPPRLPRPRPRPAHVPRP
shrunken log2 fold change: 0.0505

RRIRTRPPRLPRPRPRPAIFPRP
shrunken log2 fold change: -0.0366

RRIRTRPPRLPRPRPRPAIVPRP
shrunken log2 fold change: 0.00191

RRIRTRPPRLPRPRPRPAKCPRP
shrunken log2 fold change: 0.0582

RRIRTRPPRLPRPRPRPALDPRP
shrunken log2 fold change: 0.196

RRIRTRPPRLPRPRPRPANIPRP
shrunken log2 fold change: -0.439

RRIRTRPPRLPRPRPRPANRPRP
shrunken log2 fold change: -0.0396

RRIRTRPPRLPRPRPRPAQNPRP
shrunken log2 fold change: 0.323

RRIRTRPPRLPRPRPRPAVSPRP
shrunken log2 fold change: 0.00645

RRIRTRPPRLPRPRPRPAWGPRP
shrunken log2 fold change: 0.142

RRIRTRPPRLPRPRPRPAYGPRP
shrunken log2 fold change: -0.285

RRIRTRPPRLPRPRPRPCAFPRP
shrunken log2 fold change: -0.0344

RRIRTRPPRLPRPRPRPCDAPRP
shrunken log2 fold change: 0.0216

RRIRTRPPRLPRPRPRPCDSPRP
shrunken log2 fold change: -0.0585

RRIRTRPPRLPRPRPRPCDTPRP
shrunken log2 fold change: -0.116

RRIRTRPPRLPRPRPRPCFKPRP
shrunken log2 fold change: -0.362

RRIRTRPPRLPRPRPRPCGCPRP
shrunken log2 fold change: 0.0633

RRIRTRPPRLPRPRPRPCGVPRP
shrunken log2 fold change: -0.175

RRIRTRPPRLPRPRPRPCKIPRP
shrunken log2 fold change: -0.03

RRIRTRPPRLPRPRPRPCKYPRP
shrunken log2 fold change: -0.41

RRIRTRPPRLPRPRPRPCLEPRP
shrunken log2 fold change: -0.279

RRIRTRPPRLPRPRPRPCMHPRP
shrunken log2 fold change: -0.0639

RRIRTRPPRLPRPRPRPCMPPRP
shrunken log2 fold change: -0.143

RRIRTRPPRLPRPRPRPCPDPRP
shrunken log2 fold change: -0.283

RRIRTRPPRLPRPRPRPCQFPRP
shrunken log2 fold change: -0.0244

RRIRTRPPRLPRPRPRPCQNPRP
shrunken log2 fold change: 0.031

RRIRTRPPRLPRPRPRPCREPRP
shrunken log2 fold change: 0.0664

RRIRTRPPRLPRPRPRPCRPPRP
shrunken log2 fold change: -0.415

RRIRTRPPRLPRPRPRPCSGPRP
shrunken log2 fold change: -0.307

RRIRTRPPRLPRPRPRPCYIPRP
shrunken log2 fold change: -0.226

RRIRTRPPRLPRPRPRPDALPRP
shrunken log2 fold change: 0.162

RRIRTRPPRLPRPRPRPDCHPRP
shrunken log2 fold change: -0.0374

RRIRTRPPRLPRPRPRPDCLPRP
shrunken log2 fold change: -0.0333

RRIRTRPPRLPRPRPRPDDQPRP
shrunken log2 fold change: -0.052

RRIRTRPPRLPRPRPRPDEEPRP
shrunken log2 fold change: 0.0173

RRIRTRPPRLPRPRPRPDEVPRP
shrunken log2 fold change: -0.0587

RRIRTRPPRLPRPRPRPDHMPRP
shrunken log2 fold change: -0.109

RRIRTRPPRLPRPRPRPDIVPRP
shrunken log2 fold change: -0.0539

RRIRTRPPRLPRPRPRPDLLPRP
shrunken log2 fold change: -0.263

RRIRTRPPRLPRPRPRPDLMPRP
shrunken log2 fold change: -0.121

RRIRTRPPRLPRPRPRPDLQPRP
shrunken log2 fold change: -0.0382

RRIRTRPPRLPRPRPRPDMFPRP
shrunken log2 fold change: -0.0274

RRIRTRPPRLPRPRPRPDMMPRP
shrunken log2 fold change: -0.182

RRIRTRPPRLPRPRPRPDPKPRP
shrunken log2 fold change: 0.113

RRIRTRPPRLPRPRPRPDQIPRP
shrunken log2 fold change: -0.0138

RRIRTRPPRLPRPRPRPDSTPRP
shrunken log2 fold change: -0.232

RRIRTRPPRLPRPRPRPDYEPRP
shrunken log2 fold change: -0.023

RRIRTRPPRLPRPRPRPDYPPRP
shrunken log2 fold change: 0.0242

RRIRTRPPRLPRPRPRPECLPRP
shrunken log2 fold change: 0.105

RRIRTRPPRLPRPRPRPEDRPRP
shrunken log2 fold change: 0.0062

RRIRTRPPRLPRPRPRPEDSPRP
shrunken log2 fold change: -0.0215

RRIRTRPPRLPRPRPRPEFDPRP
shrunken log2 fold change: 0.214

RRIRTRPPRLPRPRPRPEGEPRP
shrunken log2 fold change: -0.0398

RRIRTRPPRLPRPRPRPEHDPRP
shrunken log2 fold change: -0.0214

RRIRTRPPRLPRPRPRPEHLPRP
shrunken log2 fold change: -0.00973

RRIRTRPPRLPRPRPRPEHRPRP
shrunken log2 fold change: -0.0227

RRIRTRPPRLPRPRPRPEIEPRP
shrunken log2 fold change: -0.299

RRIRTRPPRLPRPRPRPEIHPRP
shrunken log2 fold change: -0.0341

RRIRTRPPRLPRPRPRPELAPRP
shrunken log2 fold change: 0.188

RRIRTRPPRLPRPRPRPELKPRP
shrunken log2 fold change: 0.432

RRIRTRPPRLPRPRPRPELYPRP
shrunken log2 fold change: -0.258

RRIRTRPPRLPRPRPRPEMFPRP
shrunken log2 fold change: -0.0156

RRIRTRPPRLPRPRPRPEMNPRP
shrunken log2 fold change: 0.00876

RRIRTRPPRLPRPRPRPENIPRP
shrunken log2 fold change: -0.0809

RRIRTRPPRLPRPRPRPENPPRP
shrunken log2 fold change: 0.261

RRIRTRPPRLPRPRPRPEPHPRP
shrunken log2 fold change: 0.0668

RRIRTRPPRLPRPRPRPEPLPRP
shrunken log2 fold change: 0.0272

RRIRTRPPRLPRPRPRPEPNPRP
shrunken log2 fold change: -0.0182

RRIRTRPPRLPRPRPRPEQPPRP
shrunken log2 fold change: 0.309

RRIRTRPPRLPRPRPRPEQWPRP
shrunken log2 fold change: -0.0581

RRIRTRPPRLPRPRPRPERGPRP
shrunken log2 fold change: 0.715

RRIRTRPPRLPRPRPRPEYRPRP
shrunken log2 fold change: 0.0555

RRIRTRPPRLPRPRPRPFDTPRP
shrunken log2 fold change: -0.346

RRIRTRPPRLPRPRPRPFESPRP
shrunken log2 fold change: 0.0313

RRIRTRPPRLPRPRPRPFFVPRP
shrunken log2 fold change: -0.142

RRIRTRPPRLPRPRPRPFGFPRP
shrunken log2 fold change: -0.473

RRIRTRPPRLPRPRPRPFGTPRP
shrunken log2 fold change: -0.107

RRIRTRPPRLPRPRPRPFIAPRP
shrunken log2 fold change: -0.589

RRIRTRPPRLPRPRPRPFIGPRP
shrunken log2 fold change: -0.353

RRIRTRPPRLPRPRPRPFIPPRP
shrunken log2 fold change: -0.312

RRIRTRPPRLPRPRPRPFKQPRP
shrunken log2 fold change: 0.0538

RRIRTRPPRLPRPRPRPFLNPRP
shrunken log2 fold change: -0.183

RRIRTRPPRLPRPRPRPFNEPRP
shrunken log2 fold change: -0.311

RRIRTRPPRLPRPRPRPFNHPRP
shrunken log2 fold change: 0.00676

RRIRTRPPRLPRPRPRPFPCPRP
shrunken log2 fold change: -0.197

RRIRTRPPRLPRPRPRPFSTPRP
shrunken log2 fold change: -0.0812

RRIRTRPPRLPRPRPRPFTEPRP
shrunken log2 fold change: -0.21

RRIRTRPPRLPRPRPRPFVVPRP
shrunken log2 fold change: -0.266

RRIRTRPPRLPRPRPRPFWPPRP
shrunken log2 fold change: 0.178

RRIRTRPPRLPRPRPRPFYRPRP
shrunken log2 fold change: -0.189

RRIRTRPPRLPRPRPRPGAGPRP
shrunken log2 fold change: 0.286

RRIRTRPPRLPRPRPRPGAKPRP
shrunken log2 fold change: 0.524

RRIRTRPPRLPRPRPRPGANPRP
shrunken log2 fold change: -0.124

RRIRTRPPRLPRPRPRPGASPRP
shrunken log2 fold change: 0.156

RRIRTRPPRLPRPRPRPGAVPRP
shrunken log2 fold change: 0.104

RRIRTRPPRLPRPRPRPGAWPRP
shrunken log2 fold change: 0.12

RRIRTRPPRLPRPRPRPGAYPRP
shrunken log2 fold change: -0.143

RRIRTRPPRLPRPRPRPGCCPRP
shrunken log2 fold change: 0.334

RRIRTRPPRLPRPRPRPGCQPRP
shrunken log2 fold change: -0.0154

RRIRTRPPRLPRPRPRPGDHPRP
shrunken log2 fold change: 0.00667

RRIRTRPPRLPRPRPRPGDMPRP
shrunken log2 fold change: 1.73

RRIRTRPPRLPRPRPRPGDPPRP
shrunken log2 fold change: 0.106

RRIRTRPPRLPRPRPRPGDSPRP
shrunken log2 fold change: 0.152

RRIRTRPPRLPRPRPRPGDWPRP
shrunken log2 fold change: 0.73

RRIRTRPPRLPRPRPRPGFGPRP
shrunken log2 fold change: 0.263

RRIRTRPPRLPRPRPRPGFIPRP
shrunken log2 fold change: -0.585

RRIRTRPPRLPRPRPRPGHSPRP
shrunken log2 fold change: 0.0834

RRIRTRPPRLPRPRPRPGIIPRP
shrunken log2 fold change: 0.0136

RRIRTRPPRLPRPRPRPGIWPRP
shrunken log2 fold change: -0.0153

RRIRTRPPRLPRPRPRPGLFPRP
shrunken log2 fold change: 0.458

RRIRTRPPRLPRPRPRPGLGPRP
shrunken log2 fold change: 0.466

RRIRTRPPRLPRPRPRPGLMPRP
shrunken log2 fold change: 0.0921

RRIRTRPPRLPRPRPRPGMAPRP
shrunken log2 fold change: -0.0805

RRIRTRPPRLPRPRPRPGMLPRP
shrunken log2 fold change: -0.141

RRIRTRPPRLPRPRPRPGMQPRP
shrunken log2 fold change: -0.0474

RRIRTRPPRLPRPRPRPGNSPRP
shrunken log2 fold change: -0.169

RRIRTRPPRLPRPRPRPGPEPRP
shrunken log2 fold change: 0.0888

RRIRTRPPRLPRPRPRPGPKPRP
shrunken log2 fold change: 0.152

RRIRTRPPRLPRPRPRPGPPPRP
shrunken log2 fold change: 0.404

RRIRTRPPRLPRPRPRPGQHPRP
shrunken log2 fold change: 0.351

RRIRTRPPRLPRPRPRPGRSPRP
shrunken log2 fold change: 0.194

RRIRTRPPRLPRPRPRPGSMPRP
shrunken log2 fold change: -0.199

RRIRTRPPRLPRPRPRPGSRPRP
shrunken log2 fold change: 0.365

RRIRTRPPRLPRPRPRPGWIPRP
shrunken log2 fold change: -0.154

RRIRTRPPRLPRPRPRPGWKPRP
shrunken log2 fold change: 0.262

RRIRTRPPRLPRPRPRPHAEPRP
shrunken log2 fold change: 0.17

RRIRTRPPRLPRPRPRPHASPRP
shrunken log2 fold change: -0.033

RRIRTRPPRLPRPRPRPHCCPRP
shrunken log2 fold change: 0.142

RRIRTRPPRLPRPRPRPHCFPRP
shrunken log2 fold change: -0.102

RRIRTRPPRLPRPRPRPHCYPRP
shrunken log2 fold change: -0.136

RRIRTRPPRLPRPRPRPHEHPRP
shrunken log2 fold change: -0.0451

RRIRTRPPRLPRPRPRPHGTPRP
shrunken log2 fold change: 0.219

RRIRTRPPRLPRPRPRPHKGPRP
shrunken log2 fold change: 0.0731
